Test results as given in the RNAGym collection of RNA variant scans (doi:10.1073/pnas.2313332121).

B1: TPR t1 (parent)
chain: GACCAAUCUGCCCUCAGAGCUCGAGAACAUCUUCGGAUGCAGAGGAGGCAGGCUUCGGUGGCGCGAUAGCGCCAACGUCCUCAACCUCCAAUGCAUCCCACCACAUGAUGAUGCCUGAAGAGCCUUGGUUUUUUG

Variants of: B1
Test: polymerase ribozyme fitness, log enrichment relative to wild type (log ratio); higher = more active; in vitro selection for triplet polymerase activity
In short: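 For each subunit of a heterodimeric triplet polymerase ribozyme, a mutant library was built by PCR and transcribed, then taken through a single in vitro selection round in triplicate. Selection involved annealing to a biotinylated primer, the partner subunit and triplets, incubation frozen at −7 °C, gel excision of extended constructs, capture on streptavidin beads and RT-PCR. Genotypes were retained after Illumina sequencing of inputs and outputs only with ≥10 input reads and ≥1 read in each output. Fitness is defined as the logarithm of a genotype's enrichment relative to wild-type enrichment, using inverse-variance-weighted averages across replicates, with the logarithm taken to base 2.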

First: A43U A46U G58C G60A
Second: U92G G93C G117C A121U
The “polymerase ribozyme fitness (log ratio)” value of the first is higher: -2.67 for the first, -5.65 for the second.

First: A24U G122U
Second: G36A U54A C89G C101G
The “polymerase ribozyme fitness (log ratio)” value of the first is lower: -5.4 for the first, -5.15 for the second.

Going from A2C G36A U54C to U59A U96A, the “polymerase ribozyme fitness (log ratio)” value rises from -2.04 to -1.66.

C20A C104A C123G and C53U C88A G110C are within 0.2 log units of each other in “polymerase ribozyme fitness (log ratio)” value: -4.45 for the first, -4.54 for the second.

Compared with G36C A50U C62U C101G, C20A C70G is lower in “polymerase ribozyme fitness (log ratio)” value: -4.84 for the first, -5.59 for the second.

Compared with C3A C64G C76U G110C, G48A U54A is higher in “polymerase ribozyme fitness (log ratio)” value: -6.8 for the first, -0.741 for the second.

Compared with A2C U112A, C3A U21A G120C is lower in “polymerase ribozyme fitness (log ratio)” value: -0.421 for the first, -1.39 for the second.

First: A6C C12U U38G C80U
Second: U78A G113C U130C
The “polymerase ribozyme fitness (log ratio)” value of the first is higher: -1.42 for the first, -3.05 for the second.

Going from G19A C79G U81C to C40U G47C C53U, the “polymerase ribozyme fitness (log ratio)” value rises from -3.95 to -3.49.

Going from U7G C8A C15U G36A C56G C70G U78C C82G U106A to C31G G42C A111U, the “polymerase ribozyme fitness (log ratio)” value falls from -4.94 to -6.49.

First: A46G G58A A83C G107U A121C
Second: C12U G39U C115A
The “polymerase ribozyme fitness (log ratio)” value of the first is lower: -4.18 for the first, -0.243 for the second.

Compared with G42U U96C, G63C C64U A118G U133G is lower in “polymerase ribozyme fitness (log ratio)” value: -1.58 for the first, -4.77 for the second.

First: A66G G77U C89A
Second: C15A G61A C85U C98G A105G U109A C124U
The “polymerase ribozyme fitness (log ratio)” value of the first is higher: -4.38 for the first, -6.62 for the second.

First: C49A U59A G122A
Second: C8A C15A A41C C49A G58U G63U U131A
The “polymerase ribozyme fitness (log ratio)” value of the first is higher: -1.33 for the first, -3.62 for the second.

G48A U92A and G52C C114U are within 0.2 log units of each other in “polymerase ribozyme fitness (log ratio)” value: -3.51 for the first, -3.57 for the second.

C11U U21C C82G and C3G U78A U96A C123G U131C are within 0.2 log units of each other in “polymerase ribozyme fitness (log ratio)” value: -0.576 for the first, -0.54 for the second.

Compared with G71A C85U G120C, C12G C64A G122A is lower in “polymerase ribozyme fitness (log ratio)” value: 0.00346 for the first, -6.12 for the second.

Going from C20A G39A G77U A121G to A6U A74U, the “polymerase ribozyme fitness (log ratio)” value rises from -1.8 to 0.241.

Compared with C89U U112A, A27U C80U is lower in “polymerase ribozyme fitness (log ratio)” value: -0.432 for the first, -3.34 for the second.

First: C97G G120A A121U
Second: C72U U92G
The “polymerase ribozyme fitness (log ratio)” value of the first is lower: -3.45 for the first, -2.59 for the second.

First: G48U U59A G69C U116C C124U
Second: G45U C89U U96A C114U C124G
The “polymerase ribozyme fitness (log ratio)” value of the first is higher: -2.23 for the first, -2.49 for the second.

First: G35U G45A
Second: C11A G107U G122A
The “polymerase ribozyme fitness (log ratio)” value of the first is lower: -5.37 for the first, -3.88 for the second.

First: C56G G113C U133G
Second: C72U A84U C85U C104U
The “polymerase ribozyme fitness (log ratio)” value of the first is lower: -2.55 for the first, -0.48 for the second.

Going from A18C C101A C123U G127A to C49G C62A, the “polymerase ribozyme fitness (log ratio)” value rises from -4.43 to -1.32.

Going from G52A G120C to U78C U87A U130C, the “polymerase ribozyme fitness (log ratio)” value falls from 0.847 to 0.517.

First: C85A G110A
Second: G60A G61C G110C
The “polymerase ribozyme fitness (log ratio)” value of the first is higher: -2.98 for the first, -5.74 for the second.

A37C U116G and C80U C114U are within 0.2 log units of each other in “polymerase ribozyme fitness (log ratio)” value: -2.29 for the first, -2.33 for the second.

Compared with A6U G48U C53A, G45U A46U is lower in “polymerase ribozyme fitness (log ratio)” value: -0.649 for the first, -2.3 for the second.

First: C4U U14C G60A A75U
Second: A43U G61A U92A G93C
The “polymerase ribozyme fitness (log ratio)” value of the first is lower: -3.07 for the first, -1.44 for the second.

Going from C56A C79U U87A to A50G C53G G60U C72U C101A G117A, the “polymerase ribozyme fitness (log ratio)” value falls from -0.983 to -4.06.

Compared with C56A C86A G120C, G42A G61A C115A is lower in “polymerase ribozyme fitness (log ratio)” value: 0.246 for the first, -1.62 for the second.

Compared with C11U C28G C85A C104U G113C, C12G C20A A26U is higher in “polymerase ribozyme fitness (log ratio)” value: -6.42 for the first, -5.8 for the second.

Going from C20G A27G G120A to G44U A90U, the “polymerase ribozyme fitness (log ratio)” value rises from -5.6 to -2.78.

Compared with G47C C86G C124A, U7A C22G C40U G42U C62G is lower in “polymerase ribozyme fitness (log ratio)” value: 1 for the first, -6.04 for the second.

First: C8A C72U U109G
Second: C8U G44A G60U A121C G122U
The “polymerase ribozyme fitness (log ratio)” value of the first is lower: -3.8 for the first, -1.02 for the second.

Compared with G63C U116G, G60A C86A C98G U109A G117U is lower in “polymerase ribozyme fitness (log ratio)” value: -2.02 for the first, -6.71 for the second.

First: A41U C72G
Second: C34A G58A C89U A121G
The “polymerase ribozyme fitness (log ratio)” value of the first is higher: -2.06 for the first, -2.92 for the second.

First: C72A U81A C94U C114A
Second: C13A C102A
The “polymerase ribozyme fitness (log ratio)” value of the first is higher: -2.21 for the first, -3.7 for the second.

Compared with G69U C86U C101U C102U G120C, A2G is lower in “polymerase ribozyme fitness (log ratio)” value: 0.552 for the first, -0.0197 for the second.

First: G48C C62U U92G
Second: C73G C85U G117C U133A
The “polymerase ribozyme fitness (log ratio)” value of the first is higher: -3.68 for the first, -6.98 for the second.

Compared with A26U C72G, A6U G42C A74C C79G C123G U125A is higher in “polymerase ribozyme fitness (log ratio)” value: -3.37 for the first, -2.83 for the second.

First: C53A C98U
Second: A37U U131A
The “polymerase ribozyme fitness (log ratio)” value of the first is higher: -0.601 for the first, -0.895 for the second.
